From patent publication US20220226473A1, “Nucleic acid nanocarrier drug and preparation method thereof, pharmaceutical composition and application thereof” (BAI YAO ZHI DA (BEIJING) NANOBIO TECHNOLOGY CO., LTD., priority 2018, published 2022)
{Biotin} = biotin of the strand

Tests used:
Type in all cases: physicochemical
[1] = TM value detection by solubility curve method (SYBR Green I); settings: RNA nanoparticles; temperature corresponding to ½ RFUmax in 20 to 90 DEG C.
Method: A solubility curve method is used to detect TM values of the 7 groups of the extension fragment deformation+core short-sequence RNA nanoparticles, and the samples are consistent with the potential samples.
(1) After the sample is diluted with ultrapure water, 5 μg of the diluted sample is mixed with 2 μL of SYBR Green I dye (diluted by 1:200), a final volume is 20 μL, and the dilution concentration is as follows:
(2) It is incubated for 30 min in the dark at a room temperature; and
(3) On-machine detection is performed, a program is set to start at 20 DEG C., the temperature rises per second from 0.1 DEG C. to 95 DEG C., and reading is performed every 5 s.
Due to the particularity of the RNA samples, a temperature corresponding to ½ RFUmax in a range of 20 to 90 DEG C. is used as a sample Tm value in this test.
A solubility curve method is used to detect TM values of the 7 groups of the extension fragment deformation+core short-sequence DNA nanoparticles, and the samples are consistent with the potential samples.
(1) After the sample is diluted with ultrapure water, 5 μg of the diluted sample is mixed with 2 μL of SYBR Green I dye (diluted by 1:200). a final volume is 20 μL, and the dilution concentration is as follows: […]

[2] = Particle size measurement (DLS hydrodynamic size); settings: DLS hydrodynamic size
Excerpt: 1. Preparing a potential sample (conventional-sequence DNA self-assembly product D-7) and putting into a sample pool, opening a sample pool cover of an instrument, and placing the instrument;
2. opening software, and clicking a menu, so a manual measurement parameter setting dialog box appears;
3. setting a software detection parameter; and then
4. clicking Ok to complete the settings, when a measurement dialog box appears, clicking Start to start, a DLS measurement value result of a hydrodynamic size of the self-assembly product D-7 is shown below in Table 40: […]

[3] = Electric potential (zeta potential) measurement of self-assembly products; settings: result over 3 detections, at 25 DEG C.
Method: Measurement method: preparing a potential sample (the self-assembly product is dissolved in ultrapure water) and putting into a sample pool, opening a sample pool cover of an instrument, and placing the instrument;
opening software, clicking a menu MeasUre€ManUal, so a manual measurement parameter setting dialog box appears;
setting a software detection parameter;
and then clicking Ok to complete the settings, after a measurement dialog box appears, clicking start to start.
and then clicking Ok to complete the settings, after a measurement dialog box appears, clicking Start to start.
Measurement method: preparing a potential sample (the self-assembly product is dissolved in ultrapure water) and putting into a sample pool, opening a sample pool cover of an instrument, and placing the instrument:
Measurement result potential detection results of the 7 groups of the extension fragment deformation+core short-sequence RNA nanoparticles at 25 DEG C. are as follows:
setting a software detection parameter; and then
clicking Ok to complete the settings, after a measurement dialog box appears, clicking Start to start.
Measurement result potential detection results of the 7 groups of the extension fragment deformation+core short-sequence DNA nanoparticles at 25 DEG C. are as follows: […]

[4] = Drug loading rate of nucleic acid nanoparticles (chemical loading, absorbance standard curve); design: unit not given here; settings: chemical loading method of Embodiment 5
Excerpt: According to the chemical loading method (unless otherwise specified, the method is the same as that of Embodiment 5) of Embodiment 5, the RNA nanoparticles formed by the self-assembly of the previous R-15, R-16, R-17, R-18, R-19, R-20 and R-21 in Embodiment 9, and the DNA nanoparticles formed by the self-assembly of the D-8, D-9, D-10, D-11, D-12, D-13 and D-14 in Embodiment 10 are respectively used as doxorubicin loading carriers, doxorubicin loading rates measured are respectively as follows:
According to the chemical loading method (unless otherwise specified, the method is the same as that of Embodiment 5) of Embodiment 5, the DNA nanoparticles formed by the self-assembly of the previous D-10 and D-14 in Embodiment 10 are used as a daunorubicin loading carrier.
According to a chemical loading method of Embodiment 5 (unless otherwise specified, the method is the same as that of Embodiment 5, the same molar number of the epirubicin is used as a loading amount), nucleic acid nanoparticles (a molecular weight is 29550, it is similar to the RNA nanoparticles in Embodiment 1, and a difference is that a fluorescent label on a c-strand is Cy5) are used as a carrier, and respectively loaded with: epirubicin, methotrexate, pirarubicin, daunorubicin, […], 10-hydroxycamptothecin, aspirin and gemcitabine.
Herein, when a standard curve is drawn, the absorbance of the above drugs on the microplate reader is measured respectively. The absorbance of the epirubicin, methotrexate, pirarubicin, daunorubicin, […], 10-hydroxycamptothecin, aspirin and gemcitabine is respectively detected at the following wavelengths: 492 nm, 303 nm, 492 nm, 492 nm, 265 nm, 384 nm, 225 nm and 268 nm. The standard curves obtained correspondingly are respectively shown in FIG. 48a, FIG. 49, FIG. 50sa, FIG. 51, FIG. 52, FIG. 53, FIG. 54a and FIG. 55. […]

B1: R-17: extension fragment deformation+core short-sequence RNA nanoparticle, SEQ ID NO: 126-128, 3′ biotin, 2′F (nucleic acid)
chain 1: GCGGCGAGCGGCGAGGAGCGUUGGGGCCGGAGGCCGG
chain 2: CCGGCCUCCGGCCCCUUCGCCGCCAGCCGCC
chain 3: GGCGGCAGGCGGCCAUAGCCCUCGCCGCUCGCCGC
modifications: chain 1: 2'-fluoro at CU, RNA at AG, 3' {Biotin}, backbone not given here; chain 2: 2'-fluoro at CU, RNA at AG, backbone not given here; chain 3: 2'-fluoro at CU, RNA at AG, backbone not given here; three-strand RNA nanoparticle
[1]
  TM value (° C.): 55.2 °C
[2]
  Mean particle size (nm): 7.592 nm
[3]
  Potential ZP, Experiment result: −23.50 mV
[4]
  doxorubicin loading rate: 30.9

B2: R-18: extension fragment deformation+core short-sequence RNA nanoparticle, SEQ ID NO: 129-131, 3′ biotin, 2′F (nucleic acid)
chain 1: GCGGCGAGCGGCGAGCAGCGUUCGGGCCGGAGGCCGG
chain 2: CCGGCCUCCGGCCCGUUCGGCGCCAGCCGCC
chain 3: GGCGGCAGGCGCCCAUAGCGCUCGCCGCUCGCCGC
modifications: chain 1: 2'-fluoro at CU, RNA at AG, 3' {Biotin}, backbone not given here; chain 2: 2'-fluoro at CU, RNA at AG, backbone not given here; chain 3: 2'-fluoro at CU, RNA at AG, backbone not given here; RNA nanoparticle drug carrier
[1]
  TM value (° C.): 54.5 °C
[2]
  Mean particle size (nm): 7.520 nm
[3]
  Potential ZP, Experiment result: −21.27 mV
[4]
  doxorubicin loading rate: 34.1

B3: R-20: extension fragment deformation+core short-sequence RNA nanoparticle, SEQ ID NO: 135-137, 3′ biotin, 2′F (nucleic acid)
chain 1: GCGGCGAGCGGCGACGAGCGUUGCGGCCGGAGGCCGG
chain 2: CCGGCCUCCGGCCGCUUCGCCGCCAGCCGCC
chain 3: GGCGGCAGGCGGCCAUAGCCGUCGCCGCUCGCCGC
modifications: chain 1: 2'-fluoro at CU, RNA at AG, 3' {Biotin}, backbone not given here; chain 2: 2'-fluoro at CU, RNA at AG, backbone not given here; chain 3: 2'-fluoro at CU, RNA at AG, backbone not given here; three-strand RNA nanoparticle carrier
[1]
  TM value (° C.): 59.5 °C
[2]
  Mean particle size (nm): 7,110 nm
[3]
  Potential ZP, Experiment result: −17.90 mV
[4]
  doxorubicin loading rate: 30.2

B4: R-21: extension fragment deformation+core short-sequence RNA nanoparticle, SEQ ID NO: 138-140, 3′ biotin, 2′F (nucleic acid)
chain 1: GCGGCGAGCGGCGACGAGCGUUGCGGCCGGAGGCCGG
chain 2: CCGGCCUCCGGCCGCUUCGGCGCCAGCCGCC
chain 3: GGCGGCAGGCGCCCAUAGCCGUCGCCGCUCGCCGC
modifications: chain 1: 2'-fluoro at CU, RNA at AG, 3' {Biotin}, backbone not given here; chain 2: 2'-fluoro at CU, RNA at AG, backbone not given here; chain 3: 2'-fluoro at CU, RNA at AG, backbone not given here; three-strand RNA nanoparticle carrier
[1]
  TM value (° C.): 65.0 °C
[2]
  Mean particle size (nm): 6.720 nm
[3]
  Potential ZP, Experiment result: −16.10 mV
[4]
  doxorubicin loading rate: 20.1

B5: R-19: extension fragment deformation+core short-sequence RNA nanoparticle, SEQ ID NO: 132-134, 3′ biotin, 2′F (nucleic acid)
chain 1: GCGGCGAGCGGCGAGCAGCGUUCGGGCCGGAGGCCGG
chain 2: CCGGCCUCCGGCCCGUUCGGCCCCAGCCGCC
chain 3: GGCGGCAGGGGCCCAUAGCGCUCGCCGCUCGCCGC
modifications: chain 1: 2'-fluoro at CU, RNA at AG, 3' {Biotin}, backbone not given here; chain 2: 2'-fluoro at CU, RNA at AG, backbone not given here; chain 3: 2'-fluoro at CU, RNA at AG, backbone not given here; three-strand RNA nanoparticle carrier
[1]
  TM value (° C.): 54.0 °C
[2]
  Mean particle size (nm): 6.936 nm
[3]
  Potential ZP, Experiment result: −18.30 mV
[4]
  doxorubicin loading rate: 27.1
